These results are taken from patent US20260176358A1 (JIANGSU HENGRUI PHARMACEUTICALS, published 2026).

One experiment addresses CGRP. The experiment is described as follows: cell-based or functional assay.
Experiment [1] has as its target T1, PACAP38 (UniProt P18509 132-169, biotinylated in the ELISAs).
T1 peptide (looked up): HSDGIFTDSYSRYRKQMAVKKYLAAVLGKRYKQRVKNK
The experiment can be described thus: cell-based or functional assay.

For experiment [2], the target named is T1, PACAP38. The experiment can be described thus: ELISA, antibody on coated anti-human Fc, biotinylated peptide. How it is done: (§1) Plates were coated with 1 μg/mL anti-human Fc and blocked, and the antibodies, serially diluted, were added. […] The plates were incubated for 1 h and washed, and a horseradish peroxidase-labeled streptavidin secondary antibody was then added. After incubation, color development was performed.

In experiment [3] the target is T2, PACAP27 (UniProt P18509 132-158, biotinylated in the ELISAs).
T2 peptide (looked up): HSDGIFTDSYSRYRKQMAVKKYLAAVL
The experiment is described as above. How it is done: as §1

The next experiment deals with T3, rat CGRP (rat, UniProt P01256 83-119).
T3 peptide (looked up): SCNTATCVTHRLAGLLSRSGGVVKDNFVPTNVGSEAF
The experiment is described as follows: SPR, Biacore 8K, antibody captured on Protein A chip, 1:1 model. How it is done:
A Protein A biosensor chip was used to affinity-capture IgG, and a molecule sample was then allowed to flow through the surface of the chip. Reaction signals were detected in real time using a Biacore 8K system to obtain association and dissociation curves. After the dissociation in each experimental cycle was complete, the biosensor chip was washed and regenerated 3 times with 50 mM NaOH. Data fitting was performed using a 1:1 model.
(In SPR one partner is held on a chip, and binding of the other changes the refractive index at the surface.)

The target in another experiment is T4, human CGRP (human, UniProt P06881 83-119).
T4 peptide (looked up): T3 peptide (looked up) with S1A, N3D, D25N, E35K
The experiment is described as follows: SPR, Biacore 8K, 25 C, biotinylated antibody on SA chip, 1:1 model. How it is done:
First, the test antibodies ([…] for the mAbs and 4 μg/mL for the diabodies), biotinylated (indicated by Biotin-), were each coupled onto an SA biosensor chip. Then samples of the antigen human CGRP were sequentially injected in ascending order for 180 s, followed by dissociation. After the test was finished, fitting was performed using a 1:1 binding model.

The target in experiment [4] is T1, PACAP38. The experiment can be described thus: cell-based or functional assay.
The next experiment concerns the target T5, VIP (UniProt P01282 125-152, biotinylated in the ELISA).
T5 construct: also called vasoactive intestinal peptide
T5 peptide (looked up): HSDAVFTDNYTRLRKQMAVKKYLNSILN
The experiment can be described thus: ELISA, biotinylated VIP on streptavidin plate. How it is done:
(§2) In this test example, the abilities of the chimeric antibodies and humanized antibodies of C1 #, C9 #, C21 #, and C28 #to bind to human CGRP and rat CGRP were assessed using ELISAs. Plates were coated with […] human CGRP and rat CGRP, respectively, and blocked, and the antibodies, serially diluted, were then added. The plates were incubated for 1 h and washed, and a horseradish peroxidase-labeled anti-human Fc secondary antibody was then added. After incubation, color development was performed. […] The plates were incubated for 1 h and washed, and the antibodies, serially diluted, were then added. The plates were incubated for 1 h and washed, and a horseradish peroxidase-labeled streptavidin secondary antibody was then added. After incubation, color development was performed.

For experiment [5], the target named is T1, PACAP38. The experiment is described as follows: ELISA, biotinylated peptide on streptavidin plate. How it is done:
as §2
On the technique in general: An ELISA detects its analyte on a solid surface through an enzyme-linked reagent.

The target of experiment [6] is T2, PACAP27. The experiment is described as follows: ELISA, biotinylated peptide on streptavidin plate. How it is done:
as §2

Experiment [7] has as its target T1, PACAP38. The experiment can be described thus: competition ELISA, biotinylated PACAP38 to coated PAC1-Fc. How it is done:
(§3) The plates were incubated for 1 h and washed, and a horseradish peroxidase-labeled streptavidin secondary antibody was then added. After incubation, color development was performed.

Experiment [8] has as its target T1, PACAP38. The experiment is described as follows: competition ELISA, biotinylated PACAP38 to coated VPAC1-Fc. How it is done:
as §3

Experiment [9] has as its target T1, PACAP38. The experiment is described as follows: competition ELISA, biotinylated PACAP38 to coated VPAC2-Fc. How it is done: as §3

Positions count from the first letter of the chain named. Read-outs that look alike come from different tables or passages of the source.

B1: CP-2 (bispecific antibody)
heavy: EVQLVESGGGLVQPGGSLRLSCAASGFAFNNYDMSWVRQAPGKGLEWVATITGGGSYTWYPDSVKGRFTISRDNAKNSLYLQMNSLRAEDTAVYYCARLTGYDQAGAMDYWGQGTTVTVSSASTKGPSVFPLAPSSKSTSGGTAALGCLVKDYFPEPVTVSWNSGALTSGVHTFPAVLQSSGLYSLSSVVTVPSSSLGTQTYICNVNHKPSNTKVDKKVEPKSCEVQLVQSGAEVKKPGASVKVSCKASGYTFTDYYMNWVRQAPGQCLEWMGDINPNTGVTTYNQKFKGRVTITVDKSASTAYMELSSLRSEDTAVYYCASIIIVPDYFDYWGQGTTVTVSSGGGGSGGGGSGGGGSDIQMTQSPSSVSASVGDRVTITCKASQNVGSNVAWYQQKPGKSPKALIYSASYRYSGVPSRFSGSGSGTDFTLTISSLQPEDFATYYCQQYNSYPYTFGCGTKVEIKGGGDKTHTCPPCPAPELLGGPSVFLFPPKPKDTLYITREPEVTCVVVDVSHEDPEVKFNWYVDGVEVHNAKTKPREEQYNSTYRVVSVLTVLHQDWLNGKEYKCKVSNKALPAPIEKTISKAKGQPREPQVYTLPPSRDELTKNQVSLTCLVKGFYPSDIAVEWESNGQPENNYKTTPPVLDSDGSFFLYSKLTVDKSRWQQGNVFSCSVMHEALHNHYTQKSLSLSPGK
light: DIVLTQSPDSLAVSLGERATINCKASQSVDYDGDSYMTWYQQKPGQPPKLLIYAASHLDSGIPDRFSGSGSGTDFTLTISSLQAEDVAVYYCQQSNEDPWTFGGGTKVEIKRTVAAPSVFIFPPSDEQLKSGTASVVCLLNNFYPREAKVQWKVDNALQSGNSQESVTEQDSKDSTYSLSSTLTLSKADYEKHKVYACEVTHQGLSSPVTKSFNRGEC
notes: Format 2+2, anti-PACAP Fab (P14H2L3) and anti-CGRP scFv (C28H8L2), IgG1 (YTE) Fc; also called Biotin-CP-2
Regarding B1, the “IC50, inhibition of cAMP production in SK-N-MC cells” value in the experiment with CGRP is 2.03 nM. Moreover, the “IC50, inhibition of cAMP production in SH-SY5Y cells” value (from here on “IC50, inhibition … in SH-SY5Y cells”) in the experiment with PACAP38 [1] stood at 1.92 nM. The concentration for a half-maximal effect (EC50) turned out to be 0.1 nM in the experiment with PACAP38 [2] and 0.16 nM with PACAP27 [3]. In addition, the Kd in the experiment with rat CGRP worked out at 0.358 nM; in the experiment with human CGRP it was 0.0117 nM. Besides, the values for the off-rate constant (koff) in the experiment with rat CGRP and with human CGRP were 0.000743 s⁻¹ and 2.35e-05 s⁻¹, respectively. The on-rate (kon) with rat CGRP is 2.07e+06 M⁻¹ s⁻¹; in the experiment with human CGRP it was 2e+06 M⁻¹ s⁻¹.

B2: CP-3 (bispecific antibody, human IgG1, kappa)
heavy 1: EVQLVESGGGLVQPGGSLRLSCAASGFAFNNYDMSWVRQAPGKGLEWVATITGGGSYTWYPDSVKGRFTISRDNAKNSLYLQMNSLRAEDTAVYYCARLTGYDQAGAMDYWGQGTTVTVSSASTKGPSVFPLAPSSKSTSGGTAALGCLVKDYFPEPVTVSWNSGALTSGVHTFPAVLQSSGLYSLSSVVTVPSSSLGTQTYICNVNHKPSNTKVDKKVEPKSCDKTHTCPPCPAPELLGGPSVFLFPPKPKDTLYITREPEVTCVVVDVSHEDPEVKFNWYVDGVEVHNAKTKPREEQYNSTYRVVSVLTVLHQDWLNGKEYKCKVSNKALPAPIEKTISKAKGQPREPQVYTLPPCRDELTKNQVSLWCLVKGFYPSDIAVEWESNGQPENNYKTTPPVLDSDGSFFLYSKLTVDKSRWQQGNVFSCSVMHEALHNHYTQKSLSLSPGK
light 1: B1 light
heavy 2: EVQLVQSGAEVKKPGASVKVSCKASGYTFTDYYMNWVRQAPGQRLEWMGDINPNTGVTTYNQKFKGRVTITVDKSASTAYMELSSLRSEDTAVYYCASIIIVPDYFDYWGQGTTVTVSSGGGGSGIPPKIECLPIDISIDEGKVLTVASAFTGEPTPEVTWSTGGRKIHSQEQGRFHIENTDDSTTLTIKDVQKQDGGLYTLTLRNEFGSDSATVNIHIRSIDKTHTCPPCPAPELLGGPSVFLFPPKPKDTLYITREPEVTCVVVDVSHEDPEVKFNWYVDGVEVHNAKTKPREEQYNSTYRVVSVLTVLHQDWLNGKEYKCKVSNKALPAPIEKTISKAKGQPREPQVCTLPPSRDELTKNQVSLSCAVKGFYPSDIAVEWESNGQPENNYKTTPPVLDSDGSFFLVSKLTVDKSRWQQGNVFSCSVMHEALHNHYTQKSLSLSPGK
light 2: DIQMTQSPSSVSASVGDRVTITCKASQNVGSNVAWYQQKPGKSPKALIYSASYRYSGVPSRFSGSGSGTDFTLTISSLQPEDFATYYCQQYNSYPYTFGGGTKVEIKGGGGSSGAPRFLTRPKASVVSVGKDATLSCQIVGNPFPQVSWEKDKQPVTAGVRFRLAQDGDLYRLKILDLQLSDSGQYVCRARNAHGEAFACLGLQVDAEA
notes: Format 1+1, anti-PACAP Fab (P14H2L3) and anti-CGRP Titin/Obscurin Fab (C28H6L1), knob-into-hole IgG1 (YTE) Fc; also called Biotin-CP-3
For B2, the “IC50, inhibition of cAMP production in SK-N-MC cells” value in the experiment with CGRP is 5.79 nM. In addition, the “IC50, inhibition … in SH-SY5Y cells” value with PACAP38 [1] worked out at 11 nM. For the same molecule, the 50% effective concentration (EC50) with PACAP38 [2] is 0.22 nM. In the experiment with PACAP27 [3], this molecule returned an EC50 of 0.33 nM. Also, in the experiment with rat CGRP, the Kd worked out at 0.0897 nM, the koff came to 0.000301 s⁻¹ and the on-rate constant (kon) was 3.35e+06 M⁻¹ s⁻¹. Besides, in the experiment with human CGRP, the equilibrium dissociation constant (Kd) was 0.00764 nM, the koff amounted to 3.31e-05 s⁻¹ and the kon was 4.34e+06 M⁻¹ s⁻¹.

B3: P14#-CHI (antibody, human IgG1, kappa, V domains shown)
VH: DVKLVESGGGLVKPGGSLKVSCAASGFAFNNYDMSWVRQTPEKRLDWVATITGGGSYTWYPDSVKGRFTISRDNARNTLFLQMSSLRSEDTALYYCARLNGYDQAGAMDYWGQGTSVTVSS
VL: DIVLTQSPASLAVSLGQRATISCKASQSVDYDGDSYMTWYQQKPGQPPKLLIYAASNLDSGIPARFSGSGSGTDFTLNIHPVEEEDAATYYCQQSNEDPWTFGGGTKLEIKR
notes: chimeric: murine variable regions fused to human constant regions; also called P14#-CH1
For B3, in the experiment with PACAP38 [4], the “IC50, inhibition … in SH-SY5Y cells” value came to 1.46 nM. The binding result with VIP is on record as “no binding”. The concentration for a half-maximal effect (EC50) came to 0.09 nM in the experiment with PACAP38 [5] and 0.14 nM with PACAP27 [6]. The IC50 in the experiment with PACAP38 [7] was 0.48 nM; in the experiment with PACAP38 [8], 0.27 nM; with PACAP38 [9], 0.23 nM.

B4: P14H1L2 (antibody, human IgG1, kappa, V domains shown)
VH: EVQLVESGGGLVKPGGSLRLSCAASGFAFNNYDMSWVRQAPGKGLEWVATITGGGSYTWYPDSVKGRFTISRDNAKNSLYLQMNSLRAEDTAVYYCARLTGYDQAGAMDYWGQGTTVTVSS
VL: DIVLTQSPDSLAVSLGERATINCKASQSVDYDGDSYMTWYQQKPGQPPKLLIYAASNLDSGIPDRFSGSGSGTDFTLTISSLQAEDVAVYYCQQSNEDPWTFGGGTKVEIKR
For B4, the “IC50, inhibition … in SH-SY5Y cells” value with PACAP38 [4] was 2.37 nM. Also, the binding result in the experiment with VIP is “no binding”. Besides, the concentration giving a half-maximal response (EC50) with PACAP38 [5] came to 0.09 nM; in the experiment with PACAP27 [6], 0.19 nM. For the same molecule, the concentration for half-maximal inhibition (IC50) stood at 0.45 nM with PACAP38 [7], 0.19 nM in the experiment with PACAP38 [8] and 0.18 nM with PACAP38 [9].

B5: P14H2L3 (antibody, human IgG1, kappa, V domains shown)
VH: B4 VH with K13Q
VL: B4 VL with N57H
For the molecule B5, the entries for the “IC50, inhibition … in SH-SY5Y cells” value with PACAP38 [4] and with PACAP38 [1] were 4.02 nM and 2.4 nM, respectively. For the same molecule, in the experiment with VIP, the binding result was “no binding”. The EC50 with PACAP38 [5] amounted to 0.09 nM; with PACAP27 [6], 0.2 nM; in the experiment with PACAP38 [2] it was 0.13 nM; in the experiment with PACAP27 [3], 0.16 nM. In addition, the figures for the half-maximal inhibitory concentration (IC50) with PACAP38 [7], with PACAP38 [8] and with PACAP38 [9] were 0.67 nM, 0.58 nM and 0.4 nM, respectively.

B6: P14H1L1 (antibody, human IgG1, kappa, V domains shown)
VH: B4 VH
VL: B4 VL with L4M, I62V
As to B6, the binding result in the experiment with VIP is given as “no binding”. For the same molecule, the EC50 in the experiment with PACAP38 [5] was determined as 0.11 nM; with PACAP27 [6] it was 0.19 nM. Further, the results for the IC50 with PACAP38 [7], in the experiment with PACAP38 [8] and in the experiment with PACAP38 [9] were 0.51 nM, 0.2 nM and 0.21 nM, respectively.

As a reminder, the EC50 is the concentration that produces a half-maximal response. For orientation: Kd means the constant that tells how readily two partners part at equilibrium. A higher Kd goes with a looser complex. Broadly, the koff is the rate constant with which the complex falls apart. As usually defined, the kon is the second-order rate constant of association. A high value points to fast association. As usually defined, the IC50 is the concentration that inhibits the measured activity by half.
